# Measurements from patent US8663642B2, “Anti-CD70 antibody-drug conjugates and their use for the treatment and prevention of cancer and immune disorders” (priority 2003, dated 2014).
# B1: 1F6-vcAFP: anti-CD70 mAb 1F6 linked to auristatin phenylalanine phenylenediamine by the valine-citrulline (vc) dipeptide linker (conjugate)
# VH: QIQLVQSGPEVKKPGETVKISCKASGYTFTNYGMNWVKQAPGKGLKWMGWINTYTGEPTYADAFKGRFAFSLETSASTAYLQINNLKNEDTATYFCARDYGDYGMDYWGQGTSVTVSS
# VL: DIVLTQSPASLAVSLGQRATISCRASKSVSTSGYSFMHWYQQKPGQPPKLLIYLASNLESGVPARFSGSGSGTDFTLNIHPVEEEDAATYYCQHSREVPWTFGGGTKLEIKR
# modifications: non-natural residues
# notes: anti-CD70 mAb 1F6 linked to auristatin phenylalanine phenylenediamine by the valine-citrulline (vc) dipeptide linker
# Columns and labels:
# Assay type in all cases: cell-based, human
# [1] = test system: activated T cell clones; experiment: Proliferation of activated T cell clones (3H-TdR)
# [2] = test system: PBMCs stimulated with irradiated allogeneic CESS cells; experiment: Mixed lymphocyte reaction (3H-TdR); conditions: MLR
# [3] = test system: CD70^+ CD8^+/Vβ17^+ T cells; experiment: In vitro deletion of M1 peptide-specific T cells (flow cytometry, viable counts)
# Experimental: PBMCs from a normal HLA-A0201donor were stimulated with the M1 peptide for 5 days. 1F6 ADCs or control non-binding IgG (cIgG) ADCs were added to cells to a final concentration of 1 μg/ml. Total viable cell counts were conducted at 24, 48, and 76 hours post drug addition. Total numbers of CD8^+/Vβ17^+ for each culture condition are calculated (upper panel).
# FIG. 19: Dose-response comparison of anti-CD70 ADCs on deletion of antigen-specific CD8^+/Vβ17^+ cells. PBMCs from a normal HLA-A0201donor were stimulated with the M1 peptide for 5 days. 1F6 ADCs or control non-binding IgG (cIgG) ADCs were given to cells to the specified final concentrations. The percentages of CD8^+/Vβ17^+ cells 4 days post ADC addition was determined by flow cytometry as in FIG. 17.
# To examine CD70 expression on activated antigen-specific T cells, PBMCs from a normal donor expressing HLA-A0201 were stimulated with the M1 peptide. PBMCs were seeded at 2×10^6 cells/ml with 5 μg/ml of M1 peptide in AIMV medium supplemented with 5% human AB serum. IL-2 (Proleukin, Chiron) and IL-15 (R&D Systems, MN) were added to final concentrations of 20 IU/ml and 5 ng/ml, respectively, once every two days beginning on day 2 after culture initiation. The expansion of CD8^+/Vβ17^+ T cells and induction of CD70 on the CD8^+/Vβ17^+ was followed by three-color flow cytometry. Vβ17^+ T cells were identified by the anti-TCRVβ17 mAb clone E17.5F3 (Beckman Coulter, Miami, Fla.).
# PBMCs from a normal donor expressing HLA-A0201 were stimulated with the M1 peptide as described in Example 11. On day 5, cells were harvested, washed, and re-seeded at 0.5-1×10^6 cells/ml (approximately 100,000 of CD8^+/Vβ17^+ T cells) in fresh AIMV medium supplemented with 5% human AB, 20 IU/ml of IL-2, and 5 ng/ml of IL-15. 1F6 or control non-binding IgG (cIgG) ADCs were added to some cultures to a final concentration of 1 μg/ml. Total viable cell counts were conducted 24, 48, and 76 hours after ADC addition. Two-color flow cytometry was conducted to determine the percentages of CD8^+/Vβ17^+ cells among the viable cells. The absolute number of CD8^+/Vβ17^+ T cells in each culture was then calculated. […] The effects of 1F6 ADCs on the CD8^+/Vβ17^− cells were also evaluated.
# The potency of three 1F6 ADCs was then compared. HLA-A0201 PBMCs were stimulated with the M1 peptide and re-seeded as described for FIG. 18 with the various ADCs at the indicated concentrations (FIG. 19). The percent of CD8^+/Vβ17^+ T cells after a 96-hour incubation was determined.
molecule,measurement,setting,value
B1,relative activity,[1]; T cell clones,more active than 1F6-vcVMMAE
same,"IC50, proliferation",[1]; all 3 clones,below 0.05 μg/ml
same,relative activity,[2],more active than 1F6-vcMMAE
same,"IC50, T cell proliferation",[2]; 5-day culture,approximately 0.1 μg/ml
same,effect on T cell proliferation,[2]; 5-day culture,substantially inhibited T cell proliferation
same,number of CD8^+/Vβ17^+ T cells,"[3]; 1 μg/ml, 76 hours after ADC addition",Virtually no expansion
same,"CD8^+/Vβ17^+ cells, of the control untreated culture","[3]; 1 μg/ml, end of the experiment",< 40%
same,inhibition of CD8^+/Vβ17^+ T cell expansion,[3]; 96-hour incubation,dose-dependent inhibition
